Measurements published in patent US7417025B2, “Use of poly-α2,8-sialic acid mimetic peptides to modulate NCAM functions” (Centre National de la Recherche Scientifique, priority 2002, dated 2008).

Experiments:
[1] = test system: chick retina axons; test: Intravitreal injection in chick embryo, retinal whole mount: axon fasciculation and guidance in vivo; details: injected into chicken embryo eyes at E3, retina observed at E9
Experimental: The dashed rectangle indicates the area from which photographs were taken. Arrows point toward the optic fissure. Axons of E9 chick retina injected at E3 with the reverse peptide (C,F) or the p65 peptide (D,G,E,H). Arrowheads show examples of axons that leave their fascicle and run perpendicularly to it.
Injections were performed as described in Monnier et al. (Developmental Biology, 2001, 229, 1-14). Briefly, a 2×2 cm window was cut into the shell over E3 chick embryos. One μl of Fast green with 10 mM of p65 or reverse peptide was injected into the right eye vitreous body using a capillary. After a five-days incubation at 37° C., (E8) retinae were dissected, spread onto nitrocellulose filters (MILIPORE), and fixed with 4% paraformaldehyde solution in PBS. Two small DiI (1,1′-dioctadecyl-3,3,3′,3′-tetramethylindocarbocyanine perchlorate) crystals were applied dorsally to the optic fissure. Retinae were stored in the dark at 37° C. for 10 days until the dye reached the axonal growth cones in the fissure, mounted in glycerol:PBS (9:1, v:v) and analysed using confocal microscopy.

[2] = test system: spinal cord dorsal hemisection; test: Functional recovery from spinal cord injury (BBB test, rotarod test); assay type: in vivo, mouse
Experimental: Male Swiss-CD1 mice (8-10 week-old) were anesthetized with a mixture of ketamine and xylazine. The spinal cord had been exposed by making a midline incision of the skin, and by retracting the paravertebral muscles. A laminectomy was performed at the T7-T8 level and the spinal cord exposed. Using iridectomy scissors, a bilateral dorsal hemisection, transecting left and right dorsal finiculus, the dorsal horns, but sparing most parts of the ventral fimiculus, was performed, resulting in a complete transection of the dorsomedial main Cortico Spinal Tract (CST). For the series of mice receiving the peptides a Surgicoll pledget saturated with 10 μl of either p65 or reverse p65 (10 μM) peptides was applied over the transection site and covered with petroleum jelly to prevent diffusion. All inside muscle layer were sutured using fine thread. Skin was sutured using surgical staples. […]
Functional evaluation of the animals was performed at day (D) D1, D4, D7, D14, D21, D28, D35, during the first week following the spinal cord lesion and then on a weekly basis until D35, by two different observers blinded to group identity. Locomotor recovery was evaluated using the BBB test (Basso, Beattie and Bresnahan test; Basso et al., Restor. Neurol. Neurosci, 2002, 5, 189-218). […]

[3] = biological target: BSA (Bos taurus, UniProt P02769); test: Peptide-BSA conjugate ELISA, control wells coated only with blocking solution (BSA); assay type: binding; details: biotinylated peptide-BSA conjugate, BSA-blocked wells, no mAb
Sequence of BSA (P02769 25-607): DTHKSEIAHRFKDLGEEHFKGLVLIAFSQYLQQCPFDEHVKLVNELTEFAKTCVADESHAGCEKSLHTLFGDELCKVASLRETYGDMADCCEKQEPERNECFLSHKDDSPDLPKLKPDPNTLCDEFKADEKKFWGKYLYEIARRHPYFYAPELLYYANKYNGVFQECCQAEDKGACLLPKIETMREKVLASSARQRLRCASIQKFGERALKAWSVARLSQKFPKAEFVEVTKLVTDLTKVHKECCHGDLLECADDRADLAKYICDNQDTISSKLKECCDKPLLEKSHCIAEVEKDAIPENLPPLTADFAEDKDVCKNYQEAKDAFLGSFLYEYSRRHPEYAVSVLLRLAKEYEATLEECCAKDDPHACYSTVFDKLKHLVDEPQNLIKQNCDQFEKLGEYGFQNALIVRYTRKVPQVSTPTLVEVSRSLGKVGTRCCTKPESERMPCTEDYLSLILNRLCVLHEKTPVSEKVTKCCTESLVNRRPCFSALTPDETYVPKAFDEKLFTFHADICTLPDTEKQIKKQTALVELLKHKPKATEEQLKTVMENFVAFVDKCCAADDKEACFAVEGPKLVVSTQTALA
Source text: • mAb 735 and 30H12 • MaxiSorp™ plates (NUNC) for coating the antibody: ELISA plates • microtiter plates (NUNC) for peptide dilution: dilution plates • Biotinylated peptide-BSA conjugates prepared as above described • Extravidin alkaline phosphatase-avidin conjugate (SIGMA E2636) • p-nitrophenyl-phosphatase alkaline substrate (SIGMA 104-105) 2.1.2) Buffers • PBS pH 7.4 • Blocking solution: 0.5% BSA in PBS • TBS • TBST: TBS containing 0.05% Tween 20 • Extravidin alkaline phosphatase-avidin conjugate solution: 1/5000 in TBST • Alkaline phosphatase substrate solution; 1 tablet in 5 ml 50 mM NaHCO3, 1 mM MgCl2 solution, pH 9.6. • mixed competitor solution: 1 mM colominic acid with a peptide-BSA conjugate gradient in TBST 2.1.3) Method
Maxisorp™ plate wells were coated with 100 μl mAb solution (25 μg/ml) for 2 h at room temperature. The control wells of the ELISA plates were only coated with the blocking solution. In parallel, the peptide-BSA conjugate dilution plates were blocked with 200 μl blocking solution for 2 h. The antibody coated wells and the control wells were blocked with 200 μl blocking solution for 1 h. In parallel the peptide-BSA conjugate dilution plates were washed 6 times with TBST and 120 μl TBST was added to the wells. An appropriate volume of peptide-BSA conjugate solution was added to the first well and the volume adjusted to 140 μl with TBST. The peptide-BSA conjugate in well one was diluted in the ratio 1/7 by taking 20 μl out of the first well and transferring into the second also to achieve the total volume of 140 μl. This was repeated for the remaining wells. The peptide-BSA conjugate dilutions for the control wells were done the same way. The blocked ELISA plates were washed 6 times with TBST and the peptide-BSA conjugate dilutions or 100 μl of the mixed competitor solution was added to the wells. After incubation for 1 h, the wells were washed 10 times with TBST and 100 μl of the alkaline phosphatase substrate solution was added to the wells. The plates were read out after 10 to 60 min using a microplate reader at 405 nm.
The specificity of peptide p21 (SEQ ID NO: 1) was investigated in a competition ELISA using biotinylated p21-BSA conjugate and a randomized variant of p21 (p22) conjugate as a control. The results presented in Tables X and XI are expressed as percentage of binding by comparison with peptide p21 at the highest concentration (9.45 10^-5 M) which corresponds to 100% binding.

Sequence	Axon guidance and fasciculation in retina in vivo [1]	Rotarod test (fine motor coordination) ([2]; D35)	BBB score (locomotor recovery) ([2]; versus p65-reverse controls, starting from D14 post-injury, 10 μl of 10 μM peptide at lesion)	Binding of peptide to BSA control wells (percentage of binding) ([3]; peptide 1.62 10^−9 M)	Binding of peptide to BSA control wells (percentage of binding) ([3]; peptide 1.67 10^−5 M)	Binding of peptide to BSA control wells (percentage of binding) ([3]; peptide 2.86 10^−9 M)	Binding of peptide to BSA control wells (percentage of binding) ([3]; peptide 2.94 10^−6 M)	Binding of peptide to BSA control wells (percentage of binding) ([3]; peptide 5.04 10^−10 M)	Binding of peptide to BSA control wells (percentage of binding) ([3]; peptide 5.20 10^−7 M)	Binding of peptide to BSA control wells (percentage of binding) ([3]; peptide 8.89 10^−11 M)	Binding of peptide to BSA control wells (percentage of binding) ([3]; peptide 9.27 10^−8 M)	Binding of peptide to BSA control wells (percentage of binding) ([3]; peptide 9.45 10^−5 M)
CSSVTAWTTGCG [p65]	axons guidance and fasciculation defects	beneficial effect on recovery	significantly higher									
DSPLVPFIDFHP [p21]				0 ± 0%	1 ± 0%	0 ± 0%	0 ± 0%	0 ± 0%	0 ± 0%	0 ± 0%	0 ± 0%	3 ± 1%
